Results from paper PMC7450096, “Structural mechanism for replication origin binding and remodeling by a metazoan origin recognition complex and its co-loader Cdc6” (Nature Communications, 2020).

Assays:
[1] = biological target: T1, ATP-DmORC (DmORC^Orc1ΔN), DNA-free (Drosophila melanogaster, UniProt O16810+Q24169+Q7K2L1+Q9W102); assay: cryo-EM structure; format: binding; conditions: no DNA, no Cdc6; active conformation
T1 construct: gene Orc1; heterohexamer; Orc1 lacking N-terminal 439 residues (truncation inferred for the DNA-free structure); tags cut by TEV; Hi5 insect cells; with Origin recognition complex subunit 2; Origin recognition complex subunit 6

wild type DmORC = biological target: T2, wild type DmORC (Drosophila melanogaster, UniProt O16810+Q9W102); assay: NADH-coupled ATPase assay (PK/LDH), Michaelis-Menten fit; format: biochemical; conditions: pH 7.6, 10 mM magnesium acetate, 300 mM potassium glutamate, 27 °C, no DNA; Orc1/4 site
T2 construct: gene Orc1; full-length heterohexamer Orc1-6; 6xHis (Orc1) and MBP (Orc4) tags cut by TEV; Hi5 insect cells; with Origin recognition complex subunit 2; Origin recognition complex subunit 3; Origin recognition complex subunit 5; Origin recognition complex subunit 6

DmORC Orc4-R97A = DmORC Orc4-R97A (Drosophila melanogaster, UniProt O16810;Q24168;Q7K2L1;Q9W102;Q24169;Q9Y1B2 1-924;1-618;1-721;1-459;1-460;1-257, R97A); assay: fluorescence anisotropy; 1 mM ATP; Anisotropy: 1 nM dsDNA, 25 mM HEPES-KOH pH 7.6, 300 mM K-glutamate, 10 mM Mg-acetate, 10% glycerol, 0.1% NP40, 1 mM DTT, 0.1 mg/mL BSA, 0 or 1 mM ATP, 25 C, 40; conditions: protein: recombinant; tags: tags cleaved; copies: 1;1;1;1;1;1; label: 5' fluorescein-dT (/5FluorT/) on top strand; blunt 40 bp; the 5' fluorescein-dT may add one unpaired T
DmORC Orc3-K141A = DmORC Orc3-K141A (Drosophila melanogaster, UniProt O16810;Q24168;Q7K2L1;Q9W102;Q24169;Q9Y1B2 1-924;1-618;1-721;1-459;1-460;1-257, K141A); assay: as above; conditions: protein: recombinant; tags: tags cleaved; copies: 1;1;1;1;1;1; label: 5' fluorescein-dT (/5FluorT/) on top strand; blunt 40 bp; the 5' fluorescein-dT may add one unpaired T
[2] = biological target: T3, DmORC Orc1deltaN;DmCdc6deltaN241 (Drosophila melanogaster;Drosophila …, UniProt O16810;Q24168;Q7K2L1;Q9W102;Q24169;Q9Y1B2;Q9VSM9 …, |del1-241); assay: cryo-EM; ATP, Mg2+; state 1, bend ~22 deg; Anisotropy: 1 nM dsDNA, 25 mM HEPES-KOH pH 7.6, 300 mM K-glutamate, 10 mM Mg-acetate, 10% glycerol, 0.1% NP40, 1 mM DTT, 0.1 mg/mL BSA, 0 or 1 mM ATP, 25 C, 40; conditions: protein: recombinant;recombinant; tags: tags cleaved;6xHis-MBP cleaved by TEV; copies: 1;1;1;1;1;1;1; blunt
[3] = biological target: T4, Drosophila origin recognition complex, full-length (DmORC) (Drosophila, UniProt O16810 1-924; Q24168 1-618; Q7K2L1 1-721; Q9W102 1-459; Q24169 1-460; Q9Y1B2 …); assay: pull-down; MBP-DmCdc6 or 6xHis-MBP-DmCdc6ΔN (200 nM) as bait on amylose beads; DmORC (100 nM) with 60 bp AT-rich dsDNA (100 nM); 25 mM HEPES-KOH pH 7.6, 300 mM potassium glutamate, 10 mM magnesium acetate, 10% glycerol, 1 mM DTT, 0 or 1 mM ATP; 25 °C; SDS-PAGE and silver staining; conditions: both partners purified
T4 construct: Orc1, Drosophila, subunit of full-length DmORC; Orc2, Drosophila, subunit of full-length DmORC; Orc3, Drosophila, subunit of full-length DmORC; Orc4, Drosophila, subunit of full-length DmORC; Orc5, Drosophila, subunit of full-length DmORC; Orc6, Drosophila, subunit of full-length DmORC; Heterohexamer Orc1-6; also called wild type DmORC; not shown: 6xHis, N-terminal, cleaved; MBP, N-terminal, …

DmORC (Orc1-6) wild type [4] = biological target: T5, DmORC (Orc1-6) wild type (Drosophila melanogaster, UniProt O16810;Q24168;Q7K2L1;Q9W102;Q24169;Q9Y1B2 1-924;1-618;1-721;1-459;1-460;1-257); assay: fluorescence anisotropy; 1 mM ATP; Anisotropy: 1 nM dsDNA, 25 mM HEPES-KOH pH 7.6, 300 mM K-glutamate, 10 mM Mg-acetate, 10% glycerol, 0.1% NP40, 1 mM DTT, 0.1 mg/mL BSA, 0 or 1 mM ATP, 25 C, 40; conditions: protein: recombinant; tags: 6xHis-Orc1 and MBP-Orc4 tags cleaved by TEV; copies: 1;1;1;1;1;1; label: 5' fluorescein-dT on top strand; blunt 40 bp; the 5' fluorescein-dT may add one unpaired T
DmORC (Orc1-6) wild type [5] = biological target: T5, DmORC (Orc1-6) wild type; assay: fluorescence anisotropy; 1 mM ATP; Hill fit (quadratic fit 1.7 nM); Anisotropy: 1 nM dsDNA, 25 mM HEPES-KOH pH 7.6, 300 mM K-glutamate, 10 mM Mg-acetate, 10% glycerol, 0.1% NP40, 1 mM DTT, 0.1 mg/mL BSA, 0 or 1 mM ATP, 25 C, 40; conditions: protein: recombinant; tags: 6xHis-Orc1 and MBP-Orc4 tags cleaved by TEV; copies: 1;1;1;1;1;1; label: 5' fluorescein-dT on top strand; blunt 40 bp; the 5' fluorescein-dT may add one unpaired T
DmORC Orc1deltaN = DmORC Orc1deltaN (Drosophila melanogaster, UniProt O16810;Q24168;Q7K2L1;Q9W102;Q24169;Q9Y1B2 440-924;1-618;1-721;1-459;1-460;1-257); assay: cryo-EM; gel filtration; ATP, Mg2+; Anisotropy: 1 nM dsDNA, 25 mM HEPES-KOH pH 7.6, 300 mM K-glutamate, 10 mM Mg-acetate, 10% glycerol, 0.1% NP40, 1 mM DTT, 0.1 mg/mL BSA, 0 or 1 mM ATP, 25 C, 40; conditions: protein: recombinant; tags: tags cleaved; copies: 1;1;1;1;1;1; blunt
[6] = biological target: T3, DmORC Orc1deltaN;DmCdc6deltaN241; assay: cryo-EM; gel filtration; ATP, Mg2+; DNA bent 46 deg; Anisotropy: 1 nM dsDNA, 25 mM HEPES-KOH pH 7.6, 300 mM K-glutamate, 10 mM Mg-acetate, 10% glycerol, 0.1% NP40, 1 mM DTT, 0.1 mg/mL BSA, 0 or 1 mM ATP, 25 C, 40; conditions: protein: recombinant;recombinant; tags: tags cleaved;6xHis-MBP cleaved by TEV; copies: 1;1;1;1;1;1;1; blunt

T2 sequence (O16810 whole entry): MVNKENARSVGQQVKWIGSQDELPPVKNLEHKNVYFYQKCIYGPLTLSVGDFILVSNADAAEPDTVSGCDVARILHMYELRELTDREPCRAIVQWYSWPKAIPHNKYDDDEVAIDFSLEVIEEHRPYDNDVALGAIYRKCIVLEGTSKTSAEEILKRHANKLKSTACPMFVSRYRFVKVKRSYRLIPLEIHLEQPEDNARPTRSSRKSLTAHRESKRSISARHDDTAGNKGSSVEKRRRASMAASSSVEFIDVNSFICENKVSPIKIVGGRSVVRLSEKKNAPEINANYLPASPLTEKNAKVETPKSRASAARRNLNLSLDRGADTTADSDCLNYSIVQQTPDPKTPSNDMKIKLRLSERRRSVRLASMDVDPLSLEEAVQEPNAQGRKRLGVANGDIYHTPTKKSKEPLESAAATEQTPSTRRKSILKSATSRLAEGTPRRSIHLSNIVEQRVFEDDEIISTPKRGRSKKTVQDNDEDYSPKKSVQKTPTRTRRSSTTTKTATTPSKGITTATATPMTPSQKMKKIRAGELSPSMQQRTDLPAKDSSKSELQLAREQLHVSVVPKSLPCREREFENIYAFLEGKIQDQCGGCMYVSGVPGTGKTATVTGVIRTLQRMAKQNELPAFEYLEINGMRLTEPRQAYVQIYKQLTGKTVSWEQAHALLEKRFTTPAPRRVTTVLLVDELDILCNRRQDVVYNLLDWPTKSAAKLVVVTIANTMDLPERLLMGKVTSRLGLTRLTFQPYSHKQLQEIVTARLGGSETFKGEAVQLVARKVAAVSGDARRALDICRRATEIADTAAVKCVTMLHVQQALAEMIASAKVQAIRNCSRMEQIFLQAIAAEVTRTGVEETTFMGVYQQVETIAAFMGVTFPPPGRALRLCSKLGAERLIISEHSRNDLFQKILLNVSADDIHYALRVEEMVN
T2 sequence (Q9W102 1-459): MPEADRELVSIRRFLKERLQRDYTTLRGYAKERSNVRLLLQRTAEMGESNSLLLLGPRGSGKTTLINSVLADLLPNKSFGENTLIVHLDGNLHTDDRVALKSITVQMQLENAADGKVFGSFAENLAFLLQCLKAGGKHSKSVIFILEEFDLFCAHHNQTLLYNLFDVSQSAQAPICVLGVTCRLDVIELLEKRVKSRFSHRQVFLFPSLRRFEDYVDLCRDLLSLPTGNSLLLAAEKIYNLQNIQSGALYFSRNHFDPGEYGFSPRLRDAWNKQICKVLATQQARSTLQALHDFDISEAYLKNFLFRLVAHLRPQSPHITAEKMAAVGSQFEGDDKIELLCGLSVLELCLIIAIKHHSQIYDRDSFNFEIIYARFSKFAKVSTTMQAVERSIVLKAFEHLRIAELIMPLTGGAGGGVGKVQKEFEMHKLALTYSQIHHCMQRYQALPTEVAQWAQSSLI
T2 sequence (Q24168 whole entry partner): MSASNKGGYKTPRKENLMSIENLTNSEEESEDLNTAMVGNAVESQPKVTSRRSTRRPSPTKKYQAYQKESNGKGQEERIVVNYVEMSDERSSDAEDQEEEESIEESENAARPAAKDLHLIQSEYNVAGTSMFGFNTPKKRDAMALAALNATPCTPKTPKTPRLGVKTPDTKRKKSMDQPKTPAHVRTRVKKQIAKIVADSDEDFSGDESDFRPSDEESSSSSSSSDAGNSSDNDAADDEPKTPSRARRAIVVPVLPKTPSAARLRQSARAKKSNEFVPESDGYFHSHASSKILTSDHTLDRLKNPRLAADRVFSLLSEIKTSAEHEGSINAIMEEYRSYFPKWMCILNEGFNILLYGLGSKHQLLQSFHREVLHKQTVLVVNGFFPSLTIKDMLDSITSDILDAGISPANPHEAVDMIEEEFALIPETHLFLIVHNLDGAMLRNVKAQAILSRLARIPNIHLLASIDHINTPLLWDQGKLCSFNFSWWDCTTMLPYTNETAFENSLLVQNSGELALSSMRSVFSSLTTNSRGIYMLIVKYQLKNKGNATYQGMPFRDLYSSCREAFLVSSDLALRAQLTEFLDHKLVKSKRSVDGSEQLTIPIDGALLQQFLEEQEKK
T2 sequence (Q7K2L1 1-721 partner): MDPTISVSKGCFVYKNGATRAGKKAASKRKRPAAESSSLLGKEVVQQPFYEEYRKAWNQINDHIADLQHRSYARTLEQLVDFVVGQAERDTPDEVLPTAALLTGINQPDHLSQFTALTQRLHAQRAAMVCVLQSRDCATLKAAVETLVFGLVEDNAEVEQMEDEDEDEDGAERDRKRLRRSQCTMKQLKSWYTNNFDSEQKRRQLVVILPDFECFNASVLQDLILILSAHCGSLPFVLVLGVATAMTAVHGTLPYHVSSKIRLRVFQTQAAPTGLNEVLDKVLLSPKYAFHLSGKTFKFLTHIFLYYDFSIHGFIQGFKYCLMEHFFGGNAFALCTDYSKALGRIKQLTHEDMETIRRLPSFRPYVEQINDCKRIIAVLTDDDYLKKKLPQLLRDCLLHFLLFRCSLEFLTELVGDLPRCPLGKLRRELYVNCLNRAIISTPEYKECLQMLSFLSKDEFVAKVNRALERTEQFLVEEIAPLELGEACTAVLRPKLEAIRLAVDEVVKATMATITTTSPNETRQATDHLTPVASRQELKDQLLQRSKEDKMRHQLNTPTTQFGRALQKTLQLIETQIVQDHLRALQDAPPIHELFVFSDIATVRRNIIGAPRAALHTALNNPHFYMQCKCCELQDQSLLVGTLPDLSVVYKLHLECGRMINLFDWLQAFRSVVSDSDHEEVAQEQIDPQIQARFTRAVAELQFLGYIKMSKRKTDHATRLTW
T2 sequence (Q24169 whole entry partner): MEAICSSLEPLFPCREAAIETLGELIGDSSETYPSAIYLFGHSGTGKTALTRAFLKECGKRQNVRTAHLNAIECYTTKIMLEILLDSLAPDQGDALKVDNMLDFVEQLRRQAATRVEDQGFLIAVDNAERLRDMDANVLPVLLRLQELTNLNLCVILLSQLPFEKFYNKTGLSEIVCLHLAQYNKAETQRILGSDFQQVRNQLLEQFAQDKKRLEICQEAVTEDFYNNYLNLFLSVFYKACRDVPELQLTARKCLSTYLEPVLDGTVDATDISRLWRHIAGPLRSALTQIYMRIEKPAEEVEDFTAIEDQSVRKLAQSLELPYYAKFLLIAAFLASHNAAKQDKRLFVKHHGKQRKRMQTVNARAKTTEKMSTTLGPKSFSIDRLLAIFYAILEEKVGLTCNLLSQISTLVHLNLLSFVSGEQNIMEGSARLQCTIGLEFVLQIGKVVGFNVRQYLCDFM
T2 sequence (Q9Y1B2 whole entry partner): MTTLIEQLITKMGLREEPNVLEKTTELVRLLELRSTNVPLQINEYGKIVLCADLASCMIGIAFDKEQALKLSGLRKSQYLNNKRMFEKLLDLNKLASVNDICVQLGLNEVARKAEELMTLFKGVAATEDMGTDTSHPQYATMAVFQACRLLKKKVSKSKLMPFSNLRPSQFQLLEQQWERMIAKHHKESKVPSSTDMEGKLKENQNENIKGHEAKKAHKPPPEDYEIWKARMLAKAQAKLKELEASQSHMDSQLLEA
T1 sequence (O16810 440-924, stated change not applied): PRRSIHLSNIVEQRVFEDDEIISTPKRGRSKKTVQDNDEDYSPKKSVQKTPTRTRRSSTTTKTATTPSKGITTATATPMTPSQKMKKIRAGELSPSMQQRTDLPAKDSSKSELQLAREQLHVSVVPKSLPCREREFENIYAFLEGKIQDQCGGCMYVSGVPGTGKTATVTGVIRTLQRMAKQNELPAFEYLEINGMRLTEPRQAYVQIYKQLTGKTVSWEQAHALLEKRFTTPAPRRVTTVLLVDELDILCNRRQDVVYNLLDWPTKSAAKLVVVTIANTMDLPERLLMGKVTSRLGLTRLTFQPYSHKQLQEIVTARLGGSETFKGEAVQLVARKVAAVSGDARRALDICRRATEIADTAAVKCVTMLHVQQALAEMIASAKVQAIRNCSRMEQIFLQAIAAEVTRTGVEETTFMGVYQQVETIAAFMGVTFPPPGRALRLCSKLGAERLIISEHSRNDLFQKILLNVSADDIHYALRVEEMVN
T1 sequence (Q9W102 1-459, stated change not applied): as the sequence (Q9W102 1-459) above
T1 sequence (Q24169 whole entry, stated change not applied, the tested form may be a part): as the sequence (Q24169 whole entry partner) above
T1 sequence (Q7K2L1 1-721, stated change not applied): as the sequence (Q7K2L1 1-721 partner) above
T1 sequence (Q24168 whole entry partner, the tested form may be a part): as the sequence (Q24168 whole entry partner) above
T1 sequence (Q9Y1B2 whole entry partner, the tested form may be a part): as the sequence (Q9Y1B2 whole entry partner) above

With Nc1ncnc2c1ncn2[C@@H]1O[C@H](COP(=O)(O)OP(=O)(O)OP(=O)(O)O)[C@@H](O)[C@H]1O [ATP] the cryo-EM structure [1] was “our DNA-free ATP-DmORC cryo-EM structure” and the “NADH-coupled ATPase assay (PK/LDH), Michaelis-Menten fit” value (wild type DmORC) was “we measured the ATP hydrolysis rates of wild type DmORC”.

B1: 40 bp AT-rich (ARS1-like) (dsDNA)
DNA 1: TTTTGAAAAGCAAGCATAAAAGATCTAAACATAAAATCTG
DNA 2: CAGATTTTATGTTTAGATCTTTTATGCTTGCTTTTCAAAA
B1 was tested, and the binding signal (DmORC Orc4-R97A) was ~3 fold higher Kd than wild type and the binding signal (DmORC Orc3-K141A) was ~3 fold higher Kd than wild type.

B2: 60 bp poly(dA.dT) (dsDNA)
DNA 1: AAAAAAAAAAAAAAAAAAAAAAAAAAAAAAAAAAAAAAAAAAAAAAAAAAAAAAAAAAAA
DNA 2: TTTTTTTTTTTTTTTTTTTTTTTTTTTTTTTTTTTTTTTTTTTTTTTTTTTTTTTTTTTT
B2: binds [2].

B3: full-length MBP-tagged Drosophila Cdc6 (MBP-DmCdc6) (natural protein, UniProt Q9VSM9 1-662, looked up)
chain: MAAVRRSTRLSSISKATAASPLPPSTQTPRRSEVWKRRQPKKVLADSDEEEEVVTAIYDLTSPVSENNENRNVLNKMDKISRRRTSQVQVAQSELPKTPRSTKKTVQSAGSSRAKREEENREATARFLEGEQDSEVDPLHGSPPKQRKLQPLPQHLISPSRLLDRLSIDERQEEEVEATTHKTETAEQQPKHQAKDEAKPRPKQQEDPLAQKQQEKPPTKQPNKNQTKEKSNIQTNEETQQNNLPSPSRNKYQNARRVLNSAETQNLPGRESQLQELREFFSNHLESQTSGSLYVSGQPGTGKTACLSLLLRDPDFSKRLQRVYINCTSIASVGAVYKKLCTELQLKVSGRTERDHLEAIQRHLKTAKRMLLLVLDEIDQLCTSRQEVLYTIFEWPALPGSRILLVGIANSLDLTDRALMRLNARCELKPRLMHFPPYSKQQIVEIFKSRLAEAEVLDVFPPVTLQLLAAKVSAISGDVRRALDIGRRVVEIAEQQKRDGEKEFNMKALQLEGKDAVEAKEKQDTLKPVQVTQVAAVLNKVYGASQNLEEDIEASFPLQQKLMLCTLVLMLRNERNKDISMGRLHEVYRRVCAKRNILALDQAEFTGTVDLVETRGILRIMRKKEPRLHKVLLQWDEEEVHAALSDKQLIASILSDTACLSK
notes: TEV site between MBP and Cdc6; source: Hi5 insect cells, baculovirus, purified (amylose, gel filtration); not shown: MBP, N-terminal, kept
B3: binds [3].

B4: 40 bp 100% GC (dsDNA)
DNA 1: CGCCGGGGCCGGGGGCGCCCCGCCGCGCGGGGCCGGGCCC
DNA 2: GGGCCCGGCCCCGCGCGGCGGGGCGCCCCCGGCCCCGGCG
B4 was tested, and the binding signal (DmORC (Orc1-6) wild type [4]) was ~20 fold higher Kd than poly(dA.dT).

B5: 40 bp poly(dA.dT) (dsDNA)
DNA 1: TTTTTTTTTTTTTTTTTTTTTTTTTTTTTTTTTTTTTTTT
DNA 2: AAAAAAAAAAAAAAAAAAAAAAAAAAAAAAAAAAAAAAAA
With B5 the Kd (DmORC (Orc1-6) wild type [5]) was 2.1 nM.

B6: 60 bp AT-rich (dsDNA)
DNA 1: CCTGCAGGCCTTTTGAAAAGCAAGCATAAAAGATCTAAACATAAAATCTGTAAAATAACA
DNA 2: TGTTATTTTACAGATTTTATGTTTAGATCTTTTATGCTTGCTTTTCAAAAGGCCTGCAGG
B6: binds (DmORC Orc1deltaN); binds [6].
